Patent US20200407433A1
Substitutions are numbered along the chain they refer to.

B1: murine mAb 6G5C8C4 (antibody, mouse IgG2a, V domains shown)
VH: EVQLQQSGPELVKPGASVKISCKASGYTFTDYYMNWVKQSHGKSLEWIGDINPNNGGTTYNQKFKGKATLTVDKSSTTAYMELRSLTSEDSAVYYCAVITIVPYYFDYWGQGTTLTVSS
VL: DIVMTQSQKFMSTSVGDRVSVTCKASQNVGSNVAWYQQKPGQSPKALIYSASFRYSRVPDRFSGSGSGTDFTLTISNVQSEDLADYFCQQYNSYPYTFGAGTKLELK
B2: murine mAb 24G7B10G2 (antibody, mouse IgG2a, V domains shown)
VH: EVQLLQSGPELMKPGTSVKISCKASGYTFTDYYMNWVKQSHGKSLEWIGDVNPNNGDTTYNQKFKGKATLTIDKSSSTAYMELRSLTSEDSAVYYCASITIVPLYFDFWGQGTTLAVSS
VL: DIVMTQSQKFMSTSVGDRVSVTCKASQNVGINVAWYQQKPGQSPKALLYSASYRYSGVPDRFTGSGSGTDFTLTISNVKSGDLAEYFCQQYNTYPYTFGGGTKLEIK
B3: murine mAb 30B8G9B11 (antibody, mouse IgG2a, V domains shown)
VH: B1 VH with I51V, T59H, T77S, V98S, Y104V, Y108F
VL: B2 VL with I31P, Q37R, L48I, K79Q, G81E, E85D, F87I, T93Y

Target: Primate CGRP (primate (macaque))
Sequence (P06881 83-119): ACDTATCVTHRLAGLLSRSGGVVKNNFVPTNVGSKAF
Assay: ELISA, primate CGRP binding

| EC50 [nM] | Binder |
| --- | --- |
| 0.101 | B1 |
| 0.072 | B2 |
| 0.07 | B3 |
